Assay results: publication PMC6135743

Key:
[1] = target: B41 SOSIP.664 soluble Env trimer (HIV-1 strain B41 (subtype B)); test: native gel or EMSA
[2] = target: B41 viral Env trimer from infectious virus (HIV-1 strain B41 (subtype B)); test: native gel or EMSA
[3] = target: B41 ΔCT membrane-bound Env trimer (HIV-1 strain B41 (subtype B)); test: native gel or EMSA
[4] = target: BG505 N332 SOSIP.664 soluble Env trimer (HIV-1 strain BG505 (subtype A)); test: native gel or EMSA
[5] = target: BG505 viral Env trimer from infectious virus (HIV-1 strain BG505 (subtype A)); test: native gel or EMSA
[6] = target: BG505 ΔCT N332 membrane-bound Env trimer (HIV-1 strain BG505 (subtype A)); test: native gel or EMSA
[7] = target: BG505 ΔCT T332 membrane-bound Env trimer (HIV-1 strain BG505 (subtype A)); test: native gel or EMSA
[8] = target: JR-FL E168K SOSIP.664 soluble Env trimer (HIV-1 strain JR-FL (subtype B)) (UniProt Q75760); test: native gel or EMSA
[9] = target: JR-FL viral Env trimer from infectious virus (HIV-1 strain JR-FL (subtype B)); test: native gel or EMSA
[10] = target: JR-FL ΔCT membrane-bound Env trimer (HIV-1 strain JR-FL (subtype B)) (UniProt Q75760); test: native gel or EMSA
[11] = target: BG505 ΔCT T332 membrane-bound Env trimer (HIV-1 strain BG505 (subtype A)); test: cryo-EM structure
[12] = target: B41 viral Env trimer from infectious virus (HIV-1 strain B41 (subtype B))

## B41 SOSIP.664 soluble Env trimer (complex)
[1]
  stoichiometry N: 3

## B41 viral Env trimer from infectious virus (complex)
[2]
  stoichiometry N: 3

## B41 ΔCT membrane-bound Env trimer (complex)
[3]
  stoichiometry N: 3

## BG505 N332 SOSIP.664 soluble Env trimer (complex)
[4]
  stoichiometry N: 3

## BG505 viral Env trimer from infectious virus (complex)
[5]
  stoichiometry N: 3

## BG505 ΔCT N332 membrane-bound Env trimer (complex)
[6]
  stoichiometry N: 3

## BG505 ΔCT T332 membrane-bound Env trimer (complex)
[7]
  stoichiometry N: 3

## JR-FL E168K SOSIP.664 soluble Env trimer (from UniProt Q75760 1-847) (complex)
[8]
  stoichiometry N: 3

## JR-FL viral Env trimer from infectious virus (complex)
[9]
  stoichiometry N: 3

## JR-FL ΔCT membrane-bound Env trimer (from UniProt Q75760 1-847) (complex)
[10]
  stoichiometry N: 3

## PGT151 Fab
[11]
  stoichiometry N (Fabs per trimer): < 2

B1: PGT151 monoclonal antibody (bnAb) (antibody, V domains shown)
VH: RVQLVESGGGVVQPGKSVRLSCVVSDFPFSKYPMYWVRQAPGKGLEWVAAISGDAWHVVYSNSVQGRFLVSRDNVKNTLYLEMNSLKIEDTAVYRCARMFQESGPPRLDRWSGRNYYYYSGMDVWGQGTTVTVSS
VL: DIVMTQTPLSLSVTPGQPASISCKSSESLRQSNGKTSLYWYRQKPGQSPQLLVFEVSNRFSGVSDRFVGSGSGTDFTLRISRVEAEDVGFYYCMQSKDFPLTFGGGTKVDLK
[12]
  neutralisation of B41 virus, maximal percent (Supplementary Figure 5): < 75%
